Literature values in publication PMC4586518, “Melanin production through novel processing of proopiomelanocortin in the extracellular compartment of the auricular skin of C57BL/6 mice after UV-irradiation” (Scientific Reports, 2015).

Experiments:
MC-1R [1] = test system: MC-1R; design: method as in 2 sources, ref 23 = [23]; PMID 17317724; doi:10.1096/fj.06-7398com; Rousseau K. et al. Proopiomelanocortin (POMC), the ACTH/melanocortin precursor, is secreted by human epidermal keratinocytes and melanocytes and stimulates melanogenesis . FASEB J 21 , 1844 – 1856 ( 2 ||| ref 34 = [34]; PMID 1556905; doi:10.1016/0024-3205(92)90347-r; Slominski. A. et al. Melanotropic activity of gamma MSH peptides in melanoma cells . Life Sci , 50 , 1103 – 1108 ( 1992 ). 1556905 10.1016/0024-3205(92)90347-r; details: MC-1R
Description: To clarify the mechanism of melanin production after UV-irradiation, we assessed the expression of POMC and POMC-derived peptides after UV-irradiation to the skin of the murine auricle.

MC-1R [2] = test system: MC-1R
Description: Melanin plays an important role in protecting skin after UV-irradiation. α-MSH is a major catalyst for melanogenesis in the skin following UV-irradiation. α-MSH-LI and ACTH-LI may be present in culture media of normal keratinocytes, fibroblasts, melanocytes, and their cell extracts. Although POMC and POMC-derived peptides such as ACTH and α-MSH are released from the intermedia of the pituitary, it is unlikely that pituitary secretions contribute to local pigmentation. In the present report, POMC-related peptides were detected in the UV-irradiated auricle ... || Structure-activity analyses of α-MSH have reported information on the essential sequence required for MC-1R binding and melanin production. […] However, Ac-His-Phe-Arg-Trp-NH2 had 400,000-fold less activity (EC50 20 μM) than α-MSH in a frog skin bioassay[31] and approximately 7,000-fold less activity (EC50 1 μM) in a lizard skin bioassay. Furthermore, the N-terminal region of α-MSH is ...

B1: proopiomelanocortin (protein, UniProt P01189 1-267, looked up)
chain: MPRSCCSRSGALLLALLLQASMEVRGWCLESSQCQDLTTESNLLECIRACKPDLSAETPMFPGNGDEQPLTENPRKYVMGHFRWDRFGRRNSSSSGSSGAGQKREDVSAGEDCGPLPEGGPEPRSDGAKPGPREGKRSYSMEHFRWGKPVGKKRRPVKVYPNGAEDESAEAFPLEFKRELTGQRLREGDGPDGPADDGAGAQADLEHSLLVAAEKKDEGPYRMEHFRWGSPPKDKRYGGFMTSEKSQTPLVTLFKNAIIKNAYKKGE
modifications: full-length
notes: precursor of α-MSH and ACTH; 32 kDa
- affinity for MC-1R (MC-1R [1]): markedly low
- influence on melanogenesis via MC-1R (MC-1R [2]): only slightly influenced melanogenesis via MC-1R
